In patent publication US20100239594A1 (IBIO, published 2010):

T1: Bacillus anthracis lethal factor (LF) polypeptide (Bacillus anthracis, UniProt P15917 34-809)
T1 sequence: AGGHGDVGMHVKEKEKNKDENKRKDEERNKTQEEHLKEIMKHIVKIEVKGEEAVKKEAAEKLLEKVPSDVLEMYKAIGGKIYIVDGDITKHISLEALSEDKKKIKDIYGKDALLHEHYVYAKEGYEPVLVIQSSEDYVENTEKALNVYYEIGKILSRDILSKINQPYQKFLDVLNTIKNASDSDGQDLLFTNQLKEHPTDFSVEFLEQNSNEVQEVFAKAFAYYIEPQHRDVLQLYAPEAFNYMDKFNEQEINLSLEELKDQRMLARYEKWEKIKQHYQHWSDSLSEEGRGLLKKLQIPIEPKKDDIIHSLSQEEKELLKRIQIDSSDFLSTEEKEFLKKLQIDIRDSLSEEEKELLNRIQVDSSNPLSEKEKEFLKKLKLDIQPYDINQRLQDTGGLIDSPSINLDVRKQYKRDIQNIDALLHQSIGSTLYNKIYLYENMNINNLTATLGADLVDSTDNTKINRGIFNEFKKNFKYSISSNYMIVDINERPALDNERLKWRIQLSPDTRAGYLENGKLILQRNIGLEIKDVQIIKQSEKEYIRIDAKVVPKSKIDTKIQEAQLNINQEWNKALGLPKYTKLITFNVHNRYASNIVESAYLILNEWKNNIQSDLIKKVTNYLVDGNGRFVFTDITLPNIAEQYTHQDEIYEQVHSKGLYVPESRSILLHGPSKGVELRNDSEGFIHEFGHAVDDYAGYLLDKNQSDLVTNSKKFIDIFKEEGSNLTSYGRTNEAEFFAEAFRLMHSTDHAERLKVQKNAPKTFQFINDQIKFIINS

B1: PA-1 huMAb, plant-produced glycosylated PA antibody (antibody, V domains shown)
VH: QVQLVQSGAEVKKPGASVKVSCKASGYTFTSNAIQWVRQAPGQRLEWVGWINGGDGNTKYSQKFQGRVTISRDISASTAYMELSSLRSEDTAVYYCARHRLQRGGFDPWGQGTLVTVSS
VL: EIVLTQSPGTLSLSPGERATLSCRASQSVSYSSLAWYQQKPGQAPSLLIYGASSRATGIPDRFSGSGSGPDFTLTISRLEPEDFAVYYCQHYGNSPYTFGQGTKLEIKR
B2: LF-1 huMAb, plant-produced LF antibody (antibody, V domains shown)
VH: EVQLLESGGGLVQPGGSLRLSCSGSGFMFSSYAMSWVRQAPGKGLEWVSGISGSGGTTNYADSVKGRFTISRDNSKNTLYMQMNSLRAEDTAVYYCAKDGVYGRLGGSDYWGQGTLVTVSS
VL: EIVLTQSPDFQSVSPKEKVTITCRASQSVGSSLHWYQQKPDQSPKLLIKYASQSFSGVPSRFSGSGSGTDFTLTINSLETEDAATYYCHQSSSLPLTFGGGTKVEIKR

How the values were obtained:
[1] = biological target: Bacillus anthracis protective antigen (PA) polypeptide (Bacillus anthracis, UniProt P13423 30-764); experiment: Western blot and ELISA, plant-produced antibody
[2] = biological target: T1, Bacillus anthracis lethal factor (LF) …; experiment: Western blot and ELISA, plant-produced antibody

Bacillus anthracis protective antigen (PA) polypeptide, sequence (P13423 30-764 limits assumed): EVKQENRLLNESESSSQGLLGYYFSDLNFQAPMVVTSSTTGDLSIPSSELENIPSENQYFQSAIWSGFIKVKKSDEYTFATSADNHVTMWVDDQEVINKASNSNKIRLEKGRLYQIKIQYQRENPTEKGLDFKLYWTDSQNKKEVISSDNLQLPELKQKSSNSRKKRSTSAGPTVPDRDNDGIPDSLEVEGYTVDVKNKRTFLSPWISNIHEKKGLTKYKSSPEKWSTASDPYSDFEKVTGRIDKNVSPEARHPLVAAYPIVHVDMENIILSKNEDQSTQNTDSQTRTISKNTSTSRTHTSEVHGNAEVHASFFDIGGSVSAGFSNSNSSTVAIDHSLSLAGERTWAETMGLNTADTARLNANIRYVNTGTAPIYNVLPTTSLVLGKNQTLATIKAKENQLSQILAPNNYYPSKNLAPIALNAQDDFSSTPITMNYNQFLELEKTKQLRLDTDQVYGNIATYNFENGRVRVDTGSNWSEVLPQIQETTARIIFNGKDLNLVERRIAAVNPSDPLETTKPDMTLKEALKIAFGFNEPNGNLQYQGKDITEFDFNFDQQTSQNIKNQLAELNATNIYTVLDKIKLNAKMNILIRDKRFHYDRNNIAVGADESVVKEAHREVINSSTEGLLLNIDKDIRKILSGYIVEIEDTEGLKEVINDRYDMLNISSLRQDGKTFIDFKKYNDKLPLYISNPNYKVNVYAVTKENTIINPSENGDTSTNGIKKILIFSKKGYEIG

Binder	binding result [1]	binding result [2]
B1	binds	–
B2	–	binds
